Data on 40 substances can be found in patent US11332512B2, “Peptides and combination of peptides for use in immunotherapy against various tumors” (Immatics Biotechnologies GmbH, priority 2015, dated 2022).

One test addresses HLA-A*02:01 (Homo sapiens, UniProt P04439, D140Y/D185E/D98H/E176V/E277Q/G131W/G231S/I119V/I121R/I166T/I218V/L300P/L318F/N151K/N90K/P208A/P217A/Q86G/Q94H/R138H/R169H/T345S). As to the kind of experiment: MHC binding assay: UV-ligand exchange with beta2m ELISA (peptide exchange yield). The note with it: binding to HLA-A*02:01, β2m ELISA. The method, boiled down: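 Exchange yield, UV-ligand exchange: 100-fold diluted samples on streptavidin plates, 1 h at 37 °C; HRP anti-β2m 1 h at 37 °C; TMB read at 450 nm.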
For orientation: In an ELISA, binding on a coated surface is turned into a signal by an enzyme label.

The test system of a further test is CD8+ T cells. As to the kind of experiment: In vitro immunogenicity: T-cell priming with aAPCs loaded with peptide/MHC and anti-CD28, pMHC multimer readout. It counts as cell-based, human. As to conditions: for Wells positive [%]: percentage of positive wells among evaluable, HLA-A*02 restricted peptides. The source says: In order to obtain information regarding the immunogenicity of the TUMAPs of the present invention, the inventors performed investigations using an in vitro T-cell priming assay based on repeated stimulations of CD8+ T cells with artificial antigen presenting cells (aAPCs) loaded with peptide/MHC complexes and anti-CD28 antibody.
In order to perform in vitro stimulations by artificial antigen presenting cells loaded with peptide-MHC complex (pMHC) and anti-CD28 antibody, the inventors first isolated CD8+ T cells from fresh HLA-A*02 leukapheresis products via positive selection using CD8 microbeads (Miltenyi Biotec, Bergisch-Gladbach, Germany) of healthy donors obtained from the University clinics Mannheim, Germany, after informed consent. PBMCs and isolated CD8+ lymphocytes were incubated in T-cell medium (TCM) until use consisting of RPMI-Glutamax (Invitrogen, Karlsruhe, Germany) supplemented with 10% heat inactivated human AB serum (PAN-Biotech, Aidenbach, Germany), 100 U/ml Penicillin/100 μg/ml Streptomycin (Cambrex, Cologne, Germany), 1 mM sodium pyruvate (CC Pro, Oberdorla, Germany), 20 μg/ml Gentamycin (Cambrex). 2.5 ng/ml IL-7 (PromoCell, Heidelberg, Germany) and 10 U/ml IL-2 (Novartis Pharma, Nürnberg, Germany) were also added to the TCM at this step. Generation of pMHC/anti-CD28 coated beads, T-cell stimulations and readout was performed in a highly defined in vitro system using four different pMHC molecules per stimulation condition and 8 different pMHC molecules per readout condition.
The purified co-stimulatory mouse IgG2a anti human CD28 Ab 9.3 (Jung et al., 1987) was chemically biotinylated using Sulfo-N-hydroxysuccinimidobiotin as recommended by the manufacturer (Perbio, Bonn, Germany). Beads used were 5.6 μm diameter streptavidin coated polystyrene particles (Bangs Laboratories, Illinois, USA).
pMHC used for positive and negative control stimulations were A*0201/MLA-001 (peptide […] (SEQ ID NO. 289) from modified Melan-A/MART-1) and A*0201/DDX5-001 ([…] from DDX5, SEQ ID NO. 290), respectively.
800.000 beads/200 μl were coated in 96-well plates in the presence of 4×12.5 ng different biotin-pMHC, washed and 600 ng biotin anti-CD28 were added subsequently in a volume of 200 μl. Stimulations were initiated in 96-well plates by co-incubating 1×10^6 CD8+ T cells with 2×10^5 washed coated beads in 200 μl TCM supplemented with 5 ng/ml IL-12 (PromoCell) for 3 days at 37° C. Half of the medium was then exchanged by fresh TCM supplemented with 80 U/ml IL-2 and incubating was continued for 4 days at 37° C. This stimulation cycle was performed for a total of three times. For the pMHC multimer readout using 8 different pMHC molecules per condition, a two-dimensional combinatorial coding approach was used as previously described (Andersen et al., 2012) with minor modifications encompassing coupling to 5 different fluorochromes. Finally, multimeric analyses were performed by staining the cells with Live/dead near IR dye (Invitrogen, Karlsruhe, Germany), CD8-FITC antibody clone SK1 (BD, Heidelberg, Germany) and fluorescent pMHC multimers. For analysis, a BD LSRII SORP cytometer equipped with appropriate lasers and filters was used. Peptide specific cells were calculated as percentage of total CD8+ cells. Evaluation of multimeric analysis was done using the FlowJo software (Tree Star, Oregon, USA). In vitro priming of specific multimer+CD8+ lymphocytes was detected by comparing to negative control stimulations.

As for “50 (ILLSVLHQL; listed as Homo sapiens) [compound 50]”, the “Peptide exchange (MHC class I binding score, peptide exchange yield)” value (“Peptide exchange” below) in the test with HLA-A*02:01 is reported as “+++ (= ≥50% = +++)”. The “Wells positive [%]” value in the test on CD8+ T cells was “+ (<20% = +)”. For “257 (KLIDHQGLYL; listed as Homo sapiens) [compound 257]”, in that order: “+++ (= ≥50% = +++)” and “+ (<20% = +)”.

In the case of “77 (ALYGNVQQV; listed as Homo sapiens) [compound 77]”, in the test with HLA-A*02:01, the “Peptide exchange” value was “+++ (= ≥50% = +++)”. In addition, the “Wells positive [%]” value in the test with CD8+ T cells is on record as “+ (<20% = +)”. For the substance “287 (KIQEILTQV; listed as Homo sapiens) [compound 287]”, the wells result in the test with CD8+ T cells (percentage of positive wells, in vitro priming of CD8+ T cells of healthy HLA-A*02 donors) was “+ (<20% = +)”. “246 (ALAGIVTNV; listed as Homo sapiens) [compound 246]”: the “Peptide exchange” value with HLA-A*02:01 is “+++ (= ≥50% = +++)”. In the test with CD8+ T cells, the “Wells positive [%]” value is reported as “+ (<20% = +)”. As to “264 (TLHDQVHLL; listed as Homo sapiens) [compound 264]”, the “Wells positive [%]” value with CD8+ T cells was “+ (<20% = +)”. Turning to “260 (ALNESLVEC; listed as Homo sapiens) [compound 260]”, the “Peptide exchange” value in the test with HLA-A*02:01 is recorded as “+++ (= ≥50% = +++)”. Further, the “Wells positive [%]” value in the test on CD8+ T cells is on record as “+ (<20% = +)”. For “27 (GLLGKVTSV; listed as Homo sapiens) [compound 27]”, in that order: “+++ (= ≥50% = +++)” and “+ (<20% = +)”.

For the substance “89 (SLAETIFIV; listed as Homo sapiens) [compound 89]”, in the test with HLA-A*02:01, the “Peptide exchange” value is recorded as “+++ (= ≥50% = +++)”. The “Wells positive [%]” value in the test on CD8+ T cells is recorded as “+ (<20% = +)”. As to “17 (GLLPSAESIKL; listed as Homo sapiens) [compound 17]”, in the test with CD8+ T cells, the “Wells positive [%]” value was “+ (<20% = +)”. Same read-out and setting: next, “254 (ALGDKFLLRV; listed as Homo sapiens) [compound 254]”: “+ (<20% = +)”. With “9 (SLITGQDLLSV; listed as Homo sapiens) [compound 9]”, the “Peptide exchange” value with HLA-A*02:01 is “+++ (= ≥50% = +++)”. Moreover, the “Wells positive [%]” value in the test on CD8+ T cells was “+ (<20% = +)”. “288 (SLYKGLLSV; listed as Homo sapiens) [compound 288]”: the donors result in the test with CD8+ T cells (percentage of positive donors, in vitro priming of CD8+ T cells of healthy HLA-A*02 donors) is “++++ (> = 70% = ++++)”. Regarding “29 (KMISAIPTL; listed as Homo sapiens) [compound 29]”, the “Wells positive [%]” value with CD8+ T cells is recorded as “+ (<20% = +)”. On to “97 (KLFEKSTGL; listed as Homo sapiens) [compound 97]”, for which the “Peptide exchange” value with HLA-A*02:01 is reported as “+++ (= ≥50% = +++)”. Further, in the test with CD8+ T cells, the “Wells positive [%]” value is given as “+ (<20% = +)”. For the substance “102 (GLYPVTLVGV; listed as Homo sapiens) [compound 102]”, the “Peptide exchange” value with HLA-A*02:01 is reported as “+++ (= ≥50% = +++)”. Also, the “Wells positive [%]” value in the test with CD8+ T cells was “+ (<20% = +)”. Consider “157 (ILQDGQFLV; listed as Homo sapiens) [compound 157]”, for which the “Wells positive [%]” value in the test on CD8+ T cells is “+ (<20% = +)”. For the substance “66 (AMFPDTIPRV; listed as Homo sapiens) [compound 66]”, the “Wells positive [%]” value with CD8+ T cells is given as “+ (<20% = +)”. Regarding “255 (FLMKNSDLYGA; listed as Homo sapiens) [compound 255]”, the “Peptide exchange” value with HLA-A*02:01 is listed as “+++ (= ≥50% = +++)”. In the test with CD8+ T cells, the “Wells positive [%]” value is “+ (<20% = +)”. Consider “263 (SIIEYLPTL; listed as Homo sapiens) [compound 263]”, for which the “Peptide exchange” value in the test with HLA-A*02:01 is recorded as “+++ (= ≥50% = +++)”. The “Wells positive [%]” value in the test with CD8+ T cells is on record as “+ (<20% = +)”.

For the substance “34 (TLNTLDINL; listed as Homo sapiens) [compound 34]”, the “Peptide exchange” value with HLA-A*02:01 is “+++ (= ≥50% = +++)”. Further, the “Wells positive [%]” value in the test with CD8+ T cells is listed as “++++ (> = 70% = ++++)”.

With “121 (ALYVQAPTV; listed as Homo sapiens) [compound 121]”, in the test on CD8+ T cells, the “Wells positive [%]” value is recorded as “+ (<20% = +)”. Turning to “242 (KLQEEIPVL; listed as Homo sapiens) [compound 242]”, the “Peptide exchange” value with HLA-A*02:01 is reported as “+++ (= ≥50% = +++)”. For the same substance, the “Wells positive [%]” value with CD8+ T cells is on record as “+ (<20% = +)”. For “4 (VLFGELPAL; listed as Homo sapiens) [compound 4]”, in that order: “+++ (= ≥50% = +++)” and “+ (<20% = +)”. As for “14 (YTFSGDVQL; listed as Homo sapiens) [compound 14]”, in the test with HLA-A*02:01, the “Peptide exchange” value is on record as “+++ (= ≥50% = +++)”. Moreover, in the test with CD8+ T cells, the “Wells positive [%]” value is on record as “+ (<20% = +)”. Turning to “233 (SLFESLEYL; listed as Homo sapiens) [compound 233]”, the “Peptide exchange” value with HLA-A*02:01 is listed as “+++ (= ≥50% = +++)”. In the test with CD8+ T cells, the “Wells positive [%]” value is recorded as “+ (<20% = +)”.

With “267 (YLLDMPLWYL; listed as Homo sapiens) [compound 267]”, in the test with HLA-A*02:01, the “Peptide exchange” value was “+++ (= ≥50% = +++)”. Also, the “Wells positive [%]” value in the test on CD8+ T cells is recorded as “+ (<20% = +)”. Consider “35 (VIIKGLEEI; listed as Homo sapiens) [compound 35]”, for which, in the test with CD8+ T cells, the “Wells positive [%]” value is on record as “+ (<20% = +)”. For the substance “236 (KMSELQTYV; listed as Homo sapiens) [compound 236]”, in the test with HLA-A*02:01, the “Peptide exchange” value was “+++ (= ≥50% = +++)”. For the same substance, the “Wells positive [%]” value in the test on CD8+ T cells is on record as “+ (<20% = +)”. On to “143 (MLWESIMRV; listed as Homo sapiens) [compound 143]”, for which, in the test with HLA-A*02:01, the “Peptide exchange” value was “+++ (= ≥50% = +++)”. Still for that read-out and setting: next, “40 (KIWEELSVLEV; listed as Homo sapiens) [compound 40]”: “+++ (= ≥50% = +++)”; “99 (TLFGIQLTEA; listed as Homo sapiens) [compound 99]”: “+++ (= ≥50% = +++)”; “13 (RLHDENILL; listed as Homo sapiens) [compound 13]”: “+++ (= ≥50% = +++)”. As to “39 (YLEDGFAYV; listed as Homo sapiens) [compound 39]”, the “Peptide exchange” value with HLA-A*02:01 is “+++ (= ≥50% = +++)”. Besides, the “Wells positive [%]” value with CD8+ T cells is on record as “++++ (> = 70% = ++++)”. On to “159 (QLGPVPVTI; listed as Homo sapiens) [compound 159]”, for which, in the test with HLA-A*02:01, the “Peptide exchange” value is on record as “+++ (= ≥50% = +++)”. Take “147 (GLLSALENV; listed as Homo sapiens) [compound 147]”: the “Peptide exchange” value in the test with HLA-A*02:01 is reported as “+++ (= ≥50% = +++)”. Same read-out and setting: next, “48 (KISDFGLATV; listed as Homo sapiens) [compound 48]”: “+++ (= ≥50% = +++)”; “241 (KQFEGTVEI; listed as Homo sapiens) [compound 241]”: “+++ (= ≥50% = +++)”. In the case of “67 (FLIENLLAA; listed as Homo sapiens) [compound 67]”, the “Peptide exchange” value with HLA-A*02:01 was “+++ (= ≥50% = +++)”. As to “111 (AQLEGKLVSI; listed as Homo sapiens) [compound 111]”, the “Peptide exchange” value in the test with HLA-A*02:01 is given as “+++ (= ≥50% = +++)”.
